Assay results taken from US20100143371A1 (published 2010).
Numbering of substitutions follows the chain as printed. Blank lines part the entries; values can stand above or below the binder they belong to.

What was measured:
GST-Etk kinase domain [1] = target: T1, GST-Etk kinase domain (human, UniProt P51813 417-675); assay: ELISA, purified domain antibody on immobilised GST-Etk, anti-Myc-HRP detection
T1 construct: Soluble fusion protein expressed in SF21 cells by baculovirus, purified on glutathione beads; also called recombinant Etk; not shown: Glutathione-S-transferase (GST) fusion partner of the pBac vector (Pharmingen)
Protocol: Quantitative Etk binding assay. Various concentrations of purified domain antibodies were added into a Maxi-sorp 96 well microtiter plate coated with 100 μl/well of 1 μg/ml GST-Etk and incubated for 1 h at RT. The plate was washed 3 times with PBST and then incubated with 100 μl/well of anti-Myc-HRP conjugate (1:5000 dilution) for 1 h at RT. The plate was washed 5 times, TMB peroxidase substrate was added and the absorbance at 450 nm was measured.
The antibody concentration required for 50% of maximum binding to Etk was 5 nM and 8 nM for L9 and L11, respectively, and approximately 20 nM for L5, L7, L12 and L15. […] Consistent with the binding data, all 6 domain antibodies blocked Etk enzymatic activity dose-dependently, as indicated by the reduction in the ability of recombinant Etk to phosphorylate the substrate, polyEY, in the presence of the domain antibodies (FIG. 2C).

GST-Etk kinase domain [2] = target: T1, GST-Etk kinase domain; assay: cell-based or functional assay
[3] = target: T2, endogenous Etk of NSR cells (mouse, UniProt P97504 1-651); assay: cell-based or functional assay
T2 sequence (looked up): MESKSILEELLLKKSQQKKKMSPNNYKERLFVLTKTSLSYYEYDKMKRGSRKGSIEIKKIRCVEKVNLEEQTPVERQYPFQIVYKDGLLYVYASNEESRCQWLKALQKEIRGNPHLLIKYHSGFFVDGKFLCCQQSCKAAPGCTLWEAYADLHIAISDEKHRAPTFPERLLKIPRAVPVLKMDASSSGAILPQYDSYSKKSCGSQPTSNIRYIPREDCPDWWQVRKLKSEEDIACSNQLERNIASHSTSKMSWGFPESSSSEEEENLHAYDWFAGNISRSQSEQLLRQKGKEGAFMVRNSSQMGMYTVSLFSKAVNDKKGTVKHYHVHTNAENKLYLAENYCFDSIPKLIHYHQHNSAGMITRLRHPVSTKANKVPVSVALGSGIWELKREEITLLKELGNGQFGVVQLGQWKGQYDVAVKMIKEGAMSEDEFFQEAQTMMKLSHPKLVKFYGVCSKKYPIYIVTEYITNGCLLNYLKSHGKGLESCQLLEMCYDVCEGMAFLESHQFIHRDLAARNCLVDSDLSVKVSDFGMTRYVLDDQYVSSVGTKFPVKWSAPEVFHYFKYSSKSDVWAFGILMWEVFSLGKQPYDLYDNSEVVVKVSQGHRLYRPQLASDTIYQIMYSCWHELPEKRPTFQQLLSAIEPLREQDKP

[4] = target: T2, endogenous Etk of NSR cells; assay: co-immunoprecipitation from NSR cell lysate (protein L or anti-Etk), western blot
Protocol: Western immunoblotting and immunoprecipitation. Cells from a 150 mm dish were harvested in 1 ml lysis buffer containing 25 mM Tris-HCl pH 7.4, 2 mM sodium orthovanadate, 0.5 mM EDTA, 10 mM NaF, 10 mM sodium pyrophosphate, 25 mM NaCl and 1% Tx-100 supplemented with 1:1000 dilution of protease inhibitor cocktail. Cells were frozen and thawed twice, centrifuged and supernatant was collected. Samples of 50 μg protein extract were resolved by SDS-PAGE under reducing conditions, and transferred onto nitrocellulose membrane for western immunoblotting with the indicated antibodies. For immunoprecipitation, 0.5 mg of protein extracts were incubated with either protein L beads or anti-Etk antibodies coupled to protein A bead overnight at 4° C. The immunocomplex was washed 4 times with PBST and twice with 50 mM Hepes, pH 7.5, electrophored on an SDS-polyacrylamide gel under reducing conditions, and transferred onto nitrocellulose membrane for western immunoblotting with the indicated antibodies. In addition, the immunocomplex was also used as the source for enzyme (Etk kinase) in the in vitro kinase activity and autophosphorylation assays described below.
This was further confirmed when the cell lysate was immunoprecipitated with an anti-Etk antibody followed by blotting with an anti-c-Myc antibodies (FIG. 3C).

T1 sequence (P51813 417-675): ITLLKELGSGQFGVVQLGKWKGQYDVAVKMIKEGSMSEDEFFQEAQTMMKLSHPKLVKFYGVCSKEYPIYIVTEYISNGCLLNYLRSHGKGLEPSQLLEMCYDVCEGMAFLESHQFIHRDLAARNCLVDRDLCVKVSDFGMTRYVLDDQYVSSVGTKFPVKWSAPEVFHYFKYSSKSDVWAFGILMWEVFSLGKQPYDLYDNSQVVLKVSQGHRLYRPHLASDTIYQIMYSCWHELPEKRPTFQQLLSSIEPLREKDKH

B1: L5 soluble single domain antibody (antibody, V domains shown)
VL: DIQMTQSPSSLSASVGDRVTITCRASQGIKMKLNWYQQKPGKAPKLLIYNTSHLQSGVPSRFSGSGSGTDFTLTISSLQPEDFATYYCQQHKTRPDTFGQGTKVEIKR
notes: Single human kappa light chain variable domain (domain antibody), expressed from pDOM5 in E. coli BL21, purified on protein L, about 15 kDa; the tie to L5 rests on the order of the list and the numbering (CDRs 4, 6, 8 follow 2); not shown: c-Myc tag (detected with anti-Myc-HRP)
EC50 (GST-Etk kinase domain [1]): ~20 nM | domain antibody concentration required to achieve 50% inhibition of Etk kinase activity (polyEY substrate, ELISA-based in vitro kinase assay) (GST-Etk kinase domain [2]): ~20 nM

B2: K5 intrabody (L5 expressed from pcDNA3.1-L5 in NSR cells) (antibody, V domains shown, not shown: small tags and cut ends)
VL: B1 VL
in vitro autophosphorylation of immunoprecipitated Etk, percent of the wild-type enzyme (from NSR cells) activity retained [3]: ~49% | in vitro kinase assay of Etk/intrabody immunocomplexes on polyEY, percent of activity of Etk derived from NSR cells [3]: ~25%

B3: L15 soluble single domain antibody (antibody, V domains shown)
VL: B1 VL with G28N, M31T, N50R, T51V, H53T, H91T, T93K, D96F, K107E
notes: Single human kappa light chain variable domain, from pDOM5 in E. coli BL21, protein L purified; not shown: c-Myc tag (detected with anti-Myc-HRP)
EC50 (GST-Etk kinase domain [1]): ~20 nM

B4: L9 soluble single domain antibody (antibody, V domains shown)
VL: B1 VL with G28A, M31N, N34G, N50K, T51A, H53Y, H91M, T93S, D96N
notes: as for B3
EC50 (GST-Etk kinase domain [1]): 5 nM | domain antibody concentration required to achieve 50% inhibition of Etk kinase activity (polyEY substrate, ELISA-based in vitro kinase assay) (GST-Etk kinase domain [2]): ~20 nM

B6: K9 intrabody (L9 expressed from pcDNA3.1-L9 in NSR cells) (antibody, V domains shown, not shown: small tags and cut ends)
VL: B1 VL with G28A, M31N, N34G, N50K, T51A, H53Y, H91M, T93S, D96N
in vitro autophosphorylation of immunoprecipitated Etk, percent of the wild-type enzyme (from NSR cells) activity retained [3]: ~38% | in vitro kinase assay of Etk/intrabody immunocomplexes on polyEY, percent of activity of Etk derived from NSR cells [3]: ~25%

B7: K7 intrabody (L7 expressed from pcDNA3.1-L7 in NSR cells) (antibody, V domains shown, not shown: small tags and cut ends)
VL: DIQMTQSPSSLSASVGDRVTITCRASQRIFTRLEWYQQKPGKAPMLLIYNVSHLQSGVPSRFSGSGSGTDFTLTISSLQPEDFATYYCQQTEIIPITFGQGTKVEIKQ
in vitro autophosphorylation of immunoprecipitated Etk, percent of the wild-type enzyme (from NSR cells) activity retained [3]: ~37% | in vitro kinase assay of Etk/intrabody immunocomplexes on polyEY, percent of activity of Etk derived from NSR cells [3]: ~25%

B8: L11 soluble single domain antibody (antibody, V domains shown)
VL: B7 VL with R28W, R32E, E34A, M45K, V51A, H53Y, E92F, I93T, I94P, Q108R
notes: Tie to L11 rests on list order and numbering; not shown: c-Myc tag (detected with anti-Myc-HRP)
EC50 (GST-Etk kinase domain [1]): 8 nM | domain antibody concentration required to achieve 50% inhibition of Etk kinase activity (polyEY substrate, ELISA-based in vitro kinase assay) (GST-Etk kinase domain [2]): ~40 nM

Next, values leading:

binding result [4]: no binding
B5: K15 intrabody (L15 expressed from pcDNA3.1-L15 in NSR cells) (antibody, V domains shown)
VL: B1 VL with G28N, M31T, N50R, T51V, H53T, H91T, T93K, D96F, K107E
notes: band of 12 kDa; not shown: c-Myc tag (detected with anti-c-Myc antibody)

EC50 (GST-Etk kinase domain [1]): ~20 nM | domain antibody concentration required to achieve 50% inhibition of Etk kinase activity (polyEY substrate, ELISA-based in vitro kinase assay) (GST-Etk kinase domain [2]): ~20 nM
B9: L12 soluble single domain antibody (antibody, V domains shown)
VL: DIQMTQSPSSLSASVGDRVTITCRASQWIFDRLHWYQQKPGKAPTLLIYNSSTLQSGVPSRFSGSGSGTDFTLTISSLQPEDFATYYCQQTKSRPSTFGQGTKVEIKR
notes: as for B3

in vitro autophosphorylation of immunoprecipitated Etk, percent of the wild-type enzyme (from NSR cells) activity retained [3]: ~30% | in vitro kinase assay of Etk/intrabody immunocomplexes on polyEY, percent of activity of Etk derived from NSR cells [3]: ~25%
B10: K11 intrabody (L11 expressed from pcDNA3.1-L11 in NSR cells) (antibody, V domains shown, not shown: small tags and cut ends)
VL: B7 VL with R28W, R32E, E34A, M45K, V51A, H53Y, E92F, I93T, I94P, Q108R

EC50 (GST-Etk kinase domain [1]): ~20 nM | domain antibody concentration required to achieve 50% inhibition of Etk kinase activity (polyEY substrate, ELISA-based in vitro kinase assay) (GST-Etk kinase domain [2]): ~20 nM
B11: L7 soluble single domain antibody (antibody, V domains shown)
VL: B7 VL
notes: as for B3
